Key:
NRG binding to HER3 = NRG binding to HER3 (Homo sapiens, UniProt P21860); details: increasing mAb concentrations, 45 min at 4° C., then d2-labeled NRG
Protocol: (FIG. 9A) The indicated mAbs were checked for their capacity to compete with fluorescent dye labeled NRG. […] After washes, the labeled-NRG was added and incubated for 30 min at 4° C. Fluorescence intensity at 670 nm was determined following 3 final washes. (FIG. 9B) The ability of the mAbs to avoid NRG-induced phosphorylation of HER3, AKT and ERK, was studied with N87 cells. After 20 min treatment with the indicated mAbs (10 μg/ml) at 37° C., NRG (20 ng/ml) was added to the cells for 10 min. The cells were then lysed, and equal quantities of protein lysates were run on 9% bisacrylamide gel before immunoblotting with the indicated primary antibodies. (FIG. 9C) The capacity of mAb NG33 to avoid NRG-induced migration was checked with OVCAR-5 cells and the quantification reported in a histogram. […] Signals of triplicates were quantified. **** […] (ANOVA and post hoc tests).
Agent labeling was performed by Cisbio. […] Following 1 h incubation, the plate was washed 4 times with KREBS buffer (146 mM NaCl, 4 mM KCl, 0.5 mM MgCl2, 1 mM CaCl2, 10 mM Hepes, 1 gr/L glucose, and 1 mg/mL albumin), and the fluorescent intensity (excitation: 488 nm, emission: 610 nm) was measured using a fluorescence microplate reader. […] Finally, following two washes with KREBS buffer, the fluorescence intensity was measured at 670 nm (excitation: 620 nm). […]

BxPC3 xenografts = assay: BxPC3 cell xenografts in CD1-Nude mice; type: in vivo; details: 0.2 mg/injection IP every 3 days for 5 weeks, 7 to 8 mice per group
Protocol: FIGS. 15A-F show the effects of a mixture of two anti HER3 mAbs, in vivo on BxPC3 cell xenografts and in vitro. (FIGS. 15A-C) CD1-Nude mice were grafted subcutaneously with 5×10^6 BxPC3 cells. Once tumors became palpable (after 13 days), the mice were randomized into group of 8 mice and treated every 3 days for 5 weeks. The control group (CTRL) was injected intra-peritoneally (IP) with 200 μl PBS. The other groups were treated with mAb alone or in combination at a final concentration of 0.2 mg/0.2 ml of PBS per mouse. The mice were weighted once a week and the tumors measured twice a week. An average tumor size of 7-8 mice (+/−SEM) is shown. (FIGS. 15D-F) Proliferation assays using MTT were performed on BxPC-3. 5,000 cells per well were plated the day before and treated for 72 h with the indicated mAb treatment. Decreasing concentrations of the indicated mAb (alone or in combination) were used in medium supplemented with 1% serum and NRG (10 ng/ml).
All animal studies were approved by the Weizmann Institute's Review Board (IRB). Tumor bearing CD1/nude mice were randomized in groups of five-ten mice and injected subcutaneously in the right flank with cancer cells (3-5×10^6 per mouse depending on the cell line). mAbs were injected intraperitoneally at a total dose of 200 μg per mouse per injection, twice a week, for 5 weeks or until tumors reached the size of 1,500 mm^3. In experiments evaluating the effect of the TKI AZD-9291, Vehicle (Vehicle formulation: HPMC 0.5% (sigma Cat#56340), Tween80 0.1% (Sigma Cat #P8074 in water), Erlotinib at a dose of 50 mg/kg per injection, or AZD9291 at a dose of 1 or 5 mg/kg per injection were injected daily intraperitoneally. In one experiment (FIG. 16), mice were treated daily with Erlotinib at a dose of 50 mg/kg per injection until tumors reached a size of 800 mm^3 and only then were treated as indicated. Tumor volume and body weight were evaluated twice and once per week, respectively. Mice were euthanized when tumor size reached 1,500 mm^3. […] Survival of the tumor bearing mice was recorded and depicted by Kaplan-Meier analysis. […]

NRG binding to HER3, sequence (P21860 20-1342): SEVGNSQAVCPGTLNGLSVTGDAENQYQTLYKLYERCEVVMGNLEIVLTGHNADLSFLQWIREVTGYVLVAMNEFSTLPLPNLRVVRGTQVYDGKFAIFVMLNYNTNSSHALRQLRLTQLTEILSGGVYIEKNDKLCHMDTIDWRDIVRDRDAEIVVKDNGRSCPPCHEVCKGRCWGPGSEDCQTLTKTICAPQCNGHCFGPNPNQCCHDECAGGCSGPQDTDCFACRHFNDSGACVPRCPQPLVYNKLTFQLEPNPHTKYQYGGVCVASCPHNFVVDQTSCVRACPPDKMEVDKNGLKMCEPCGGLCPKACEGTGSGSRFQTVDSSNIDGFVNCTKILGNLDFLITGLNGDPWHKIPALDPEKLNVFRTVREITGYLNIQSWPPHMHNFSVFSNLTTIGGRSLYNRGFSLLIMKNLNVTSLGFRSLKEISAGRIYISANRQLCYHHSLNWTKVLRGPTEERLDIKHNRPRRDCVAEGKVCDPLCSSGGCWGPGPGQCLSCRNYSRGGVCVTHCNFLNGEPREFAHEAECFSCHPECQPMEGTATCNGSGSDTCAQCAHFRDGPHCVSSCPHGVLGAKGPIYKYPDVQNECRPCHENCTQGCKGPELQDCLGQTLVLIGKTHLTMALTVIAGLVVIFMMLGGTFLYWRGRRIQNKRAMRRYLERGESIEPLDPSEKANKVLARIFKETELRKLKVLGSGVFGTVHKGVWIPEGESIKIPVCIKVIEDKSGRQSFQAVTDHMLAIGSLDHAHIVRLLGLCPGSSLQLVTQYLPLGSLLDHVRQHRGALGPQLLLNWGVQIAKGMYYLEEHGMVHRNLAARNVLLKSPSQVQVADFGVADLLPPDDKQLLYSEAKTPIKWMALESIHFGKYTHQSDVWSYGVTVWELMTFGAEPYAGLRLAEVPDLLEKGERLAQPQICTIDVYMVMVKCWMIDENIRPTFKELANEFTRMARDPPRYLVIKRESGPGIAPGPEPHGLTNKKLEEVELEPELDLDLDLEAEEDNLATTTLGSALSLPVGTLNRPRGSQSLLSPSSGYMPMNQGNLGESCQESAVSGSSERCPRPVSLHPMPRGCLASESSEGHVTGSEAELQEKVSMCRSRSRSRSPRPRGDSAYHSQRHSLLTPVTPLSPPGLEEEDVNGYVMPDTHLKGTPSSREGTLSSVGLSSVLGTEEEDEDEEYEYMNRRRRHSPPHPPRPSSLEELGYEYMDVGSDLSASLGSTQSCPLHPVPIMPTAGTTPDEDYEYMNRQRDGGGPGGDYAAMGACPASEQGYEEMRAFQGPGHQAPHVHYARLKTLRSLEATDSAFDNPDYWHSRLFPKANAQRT

Row | Molecule | effect on NRG binding to HER3 (NRG binding to HER3) | effect on BxPC3 xenograft tumor growth (BxPC3 xenografts)
1 | NG83: anti-HER3 mAb; light chain CDRs SEQ ID NOs: 7-9, heavy chain CDRs 10-12 (antibody, V domains shown, VH chain of NG83 polypeptide; VL chain of NG83 polypeptide) VH: QIQLVQSGPELKKRGETVKISCKASGYTFTNYGMNWVRQAPGKGLKCMGWINTYAGEPTYADDFKGRFAFSLDSSASTAYLQINNLKNEDMATYFCARGGITGAMDYWGQGTSVTVSS VL: DVVMTQKTSSLSTSLGDRVTISCRASQDIRNYLNWYQQKPDGTVKLLIYYTSRLHSGVPSRFSGSGSGTDYSLTISDLEQEDIATYFCQQGNTLPWTFGGGTKLAIK | did not disturb NRG binding | no statistically significant ability to decrease tumor growth
2 | XC252: anti-HER3 mAb generated as described in Chen X, et al. (1996); heavy and light chain SEQ ID NOs: 49 and 53 (antibody, V domains shown, VH chain of XC252 polypeptide; VL chain of XC252 polypeptide) VH: EVQLQQSGAELVRPGVSVKISCKGSGYTFTDYAMHWVKQSHAKSLEWIGVISTYYGDPRDNQKFKGKATMTVDKSSSTAYMELARLTSEDSAIYYCARGDYDWYAIDYWGQGTSVTVSS VL: DVVMTQTPLSLPVSLGDQASISCRSSQSIVHSDGNTYLEWYLQKPGQSPKLLIYKVSNRFSGVPDRFSGSGSGTDFTLKISRVEAEDLGVYYCFQGSHVPPTFGGGTKLEIK | slightly enhanced NRG binding | no statistically significant ability to decrease tumor growth
